# Results: patent US20070048219A1 (Genentech, published 2007)
# Where “and” joins values, the source holds several entries; their conditions need not be identical. Equal entries are not always repeated.
# T1: recombinant human IL-8, (ser-IL-8)72 (human, UniProt P10145 28-99, 125I label on tyrosine in the tracer form; the letters do not carry it)
# T1 construct: also called human wild type IL-8; HuIL-8
# T1 sequence: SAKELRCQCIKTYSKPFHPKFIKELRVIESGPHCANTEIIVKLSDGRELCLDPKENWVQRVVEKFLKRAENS
# T2: rabbit IL-8 (rabbit, UniProt P19874 23-101, limits assumed)
# T2 sequence (looked up): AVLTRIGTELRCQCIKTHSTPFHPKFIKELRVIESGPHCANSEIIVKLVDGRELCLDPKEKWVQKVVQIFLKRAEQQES
# T3: MGSA (UniProt P09341 35-107)
# T3 sequence (looked up): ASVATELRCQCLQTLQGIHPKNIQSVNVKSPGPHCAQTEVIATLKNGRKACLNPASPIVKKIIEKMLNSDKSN
# T4: β-TG (UniProt P02775 48-128)
# T4 construct: also called b-TG
# T4 sequence (looked up): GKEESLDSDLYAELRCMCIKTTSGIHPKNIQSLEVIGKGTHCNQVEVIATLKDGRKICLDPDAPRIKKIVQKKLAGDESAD
# T5: PF4 (UniProt P02776 32-101)
# T5 construct: also called platelet factor 4
# T5 sequence (looked up): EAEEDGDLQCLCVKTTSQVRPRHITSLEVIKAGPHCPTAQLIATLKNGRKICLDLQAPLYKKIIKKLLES
# T6: C5a (UniProt P01031 678-751)
# T6 sequence (looked up): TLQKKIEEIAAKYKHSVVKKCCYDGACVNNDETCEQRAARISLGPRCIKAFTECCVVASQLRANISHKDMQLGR
# Assays:
# [1] = target: T1, recombinant human IL-8, (ser-IL-8)72; assay: competitive RIP with unlabeled IL-8, Scatchard analysis
# [2] = target: T1, recombinant human IL-8, (ser-IL-8)72; assay: competition: inhibition of IL-8 binding to human neutrophils (experiment of FIG. 54B); Fab control of FIG. 54B
# [3] = target: T1, recombinant human IL-8, (ser-IL-8)72; assay: competition binding: the Fab is varied (Cold Ligand, nM) and blocks 125I-IL-8 binding to IL-8 receptors on human neutrophils
# Excerpt: The displacement curves from a representative binding experiment performed in duplicate is depicted in FIG. 38.
# [4] = target: T1, recombinant human IL-8, (ser-IL-8)72; assay: KinExA, IL-8-coated beads, solution equilibrium
# Protocol: (§1) The beads were resuspended in assay buffer (0.1% bovine serum albumin in PBS) to a final volume of 30 ml.
# (§2) The equilibrium constant (Kd) was calculated using the software provided by Sapidyne Instruments Inc.
# [5] = target: human monomeric IL-8 (human); assay: cell-based or functional assay
# [6] = target: T1, recombinant human IL-8, (ser-IL-8)72; assay: cell-based or functional assay
# [7] = target: T2, rabbit IL-8; assay: cell-based or functional assay
# [8] = target: T1, recombinant human IL-8, (ser-IL-8)72; assay: competition binding: the Fab inhibits binding of 125I-IL-8 to human neutrophils; Bound/Total against antibody competitor (nM)
# [9] = target: T1, recombinant human IL-8, (ser-IL-8)72; assay: as above; remark: listed apart in the source
# [10] = target: T1, recombinant human IL-8, (ser-IL-8)72; assay: competition phage ELISA on plate-bound K64C IL-8
# Protocol: The first step of the assay requires that the concentrations of the phage carrying the wild type and mutated antibodies be normalized, allowing a comparison of the relative affinities of each antibody. […] The plates were washed once more and stored covered at 4° C. with 200 ul of PBS/well. […] The phage were resuspended in 500 ul […] Tris-HCl pH 7.5, 1 mM EDTA and […] NaCl and held at 4° C. for no longer than 3 hours. […] The phage were next serially diluted in 3 fold steps down the plate from well A through H. The plates were incubated for I hour at 25° C. followed by nine quick washes with PBS containing 0.05% Tween-20 (PBST).
# [11] = target: T1, recombinant human IL-8, (ser-IL-8)72; assay: competition: inhibition of iodinated IL-8 binding to human neutrophils
# [12] = target: T1, recombinant human IL-8, (ser-IL-8)72; assay: competition: inhibition of 125I-IL-8 binding to human neutrophils
# [13] = target: T1, recombinant human IL-8, (ser-IL-8)72; assay: competition binding: the antibody is varied (Cold Ligand, nM) and blocks 125I-IL-8 binding to IL-8 receptors on human neutrophils
# Protocol: The periplasmic fraction was collected and passed over a Hi-Trap Protein-G column (Pharmacia, Piscataway, N.J.) followed by a desalting and concentration step. The protein was analyzed by SDS-PAGE, mass spectrometry and amino acid analysis.
# [14] = target: T1, recombinant human IL-8, (ser-IL-8)72; assay: KinExA equilibrium constant; column head Kd
# Protocol: as §1, §2
# [15] = target: T3, MGSA; assay: ELISA, cytokines coated onto plates
# [16] = target: TNF (UniProt P01375 77-233, limits assumed); assay: ELISA, cytokines coated onto plates
# Sequence of TNF (P01375 77-233 limits assumed): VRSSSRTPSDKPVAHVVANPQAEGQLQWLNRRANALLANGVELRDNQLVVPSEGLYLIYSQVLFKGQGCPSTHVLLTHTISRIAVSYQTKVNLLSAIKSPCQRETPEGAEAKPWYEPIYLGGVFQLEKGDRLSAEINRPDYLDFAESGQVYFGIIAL
# [17] = target: T4, β-TG; assay: ELISA, cytokines coated onto plates
# [18] = target: T5, PF4; assay: ELISA, cytokines coated onto plates
# [19] = target: T6, C5a; assay: ELISA, cytokines coated onto plates
binder,measurement,setting,value
"anti-IL-8 monoclonal antibody 5.12.14 (antibody, mouse IgG2a, V domains shown, murine IgG2a from hybridoma ATCC HB 11553) VH: EVQLVESGGGLVPPGGSLKLSCAASGFIFSSYGMSWVRQTPGKSLELVATINNNGDSTYYPDSVKGRFTISRDNAKNTLYLQMSSLKSEDTAMFYCARALISSATWFGYWGQGTLVTVSA VL: DIVMTQSQKFMSTSVGDRVSVTCKASQNVGTNVAWYQQKPGQSPKALIYSSSYRYSGVPDRFTGSGSGTDFTLTISHVQSEDLADYFCQQYNIYPLTFGPGTKLELK",Kd,[1],0.3 nM
"6G4V11N35A Fab (Fab, V domains shown, also called 6G4.2.5V11N35A Fab; Fab control) VH: EVQLVQSGGGLVQPGGSLRLSCAASGYSFSSHYMHWVRQAPGKGLEWVGYIDPSNGETTYNQKFKGRFTLSRDNSKNTAYLQMNSLRAEDTAVYYCARGDYRYNGDWFFDVWGQGTLVTVSS VL: DIQMTQSPSSLSASVGDRVTITCRSSQSLVHGIGATYLHWYQQKPGKAPKLLIYKVSNRFSGVPSRFSGSGSGTDFTLTISSLQPEDFATYYCSQSTHVPLTFGQGTKVEIKR",IC50,[2],0.802 nM
same,IC50 (read off the curve),[3],1 to 2 nM
same,Kd,[4],~0.114 nM
same,"average IC50, inhibition of IL-8 mediated neutrophil chemotaxis",[5],1 nM
same,"IC50, blocking IL-8 mediated chemotaxis",[6],0.8 nM
same,"average IC50, inhibition of human IL-8 mediated neutrophil chemotaxis",[6],2.7 nM
same,"average IC50, inhibition of IL-8 mediated neutrophil chemotaxis",[7],5 nM
same,IC50,[8],0.294 nM
same,IC50,[9],0.264 nM and 0.468 nM
"h6G4V11 Y37A (CDR-L1), phage-displayed (Fab, V domains shown, alanine-scan mutant of m36) VH: EVQLVQSGGGLVQPGGSLRLSCAASGYSFSSHYMHWVRQAPGKGLEWVGYIDPSNGETTYNQKFKGRFTLSRDNSKNTAYLQMNSLRAEDTAVYYCARGDYRYNGDWFFDVWGQGTLVTVSS VL: DIQMTQSPSSLSASVGDRVTITCRSSQSLVHGIGNTALHWYQQKPGKAPKLLIYKVSNRFSGVPSRFSGSGSGTDFTLTISSLQPEDFATYYCSQSTHVPLTFGQGTKVEIKR",binding result,[10],no binding
"humanized 6G425 F(ab)-6 (Fab, V domains shown, also called version 8) VH: EVQLVESGGGLVQPGGSLRLSCAASGYSFSSHYMHWVRQAPGKGLEWVGYIDPSNGETTYNQKFKGRFTLSRDNSKNTAYLQMNSLRAEDTAVYYCARGDYRYNGDWFFDVWGQGTLVTVSS VL: DIQMTQSPSSLSASVGDRVTITCRSSQSLVHGIGNTYLHWYQQKPGKAPKLLIYKVSNRFSGVPSRFSGSGSGTDFTLTISSLQPEDFATYYCSQSTHVPLTFGQGTKVEIKR",IC50,[11],34.6 nM
"murine anti-rabbit IL-8 monoclonal antibody 6G4.2.5 (antibody, mouse IgG2a, V domains shown, full length murine IgG2a from hybridoma ATCC HB 11722; also called 6G4 murine mAb; intact murine 6G4.2.5 antibody) VH: EIQLQQSGPELMKPGASVKISCKASGYSFSSHYMHWVKQSHGKSLEWIGYIDPSNGETTYNQKFKGKATLTVDTSSSTANVHLSSLTSDDSAVYFCARGDYRYNGDWFFDVWGAGTTVTVSS VL: DIVMTQTPLSLPVSLGDQASISCRSSQSLVHGIGNTYLHWYLQKPGQSPKLLIYKVSNRFSGVPDRFSGSGSGTDFTLRISRVEAEDLGLYFCSQSTHVPLTFGAGTKLELK",IC50,[12],5 nM
same,IC50 (read off the curve),[13],~7 nM
same,Kd,[14],0.35 nM
same,binding result,[15],no binding
same,binding result,[16],no binding
same,binding result,[17],no binding
same,binding result,[18],no binding
same,binding result,[19],no binding
